Among the data in paper PMC5920536 are stoichiometry N values, retold here.

Assay [1] deals with T1, full-length human TRPML1 (transient receptor potential mucolipin 1) (human), Q9GZU1.
T1 chain: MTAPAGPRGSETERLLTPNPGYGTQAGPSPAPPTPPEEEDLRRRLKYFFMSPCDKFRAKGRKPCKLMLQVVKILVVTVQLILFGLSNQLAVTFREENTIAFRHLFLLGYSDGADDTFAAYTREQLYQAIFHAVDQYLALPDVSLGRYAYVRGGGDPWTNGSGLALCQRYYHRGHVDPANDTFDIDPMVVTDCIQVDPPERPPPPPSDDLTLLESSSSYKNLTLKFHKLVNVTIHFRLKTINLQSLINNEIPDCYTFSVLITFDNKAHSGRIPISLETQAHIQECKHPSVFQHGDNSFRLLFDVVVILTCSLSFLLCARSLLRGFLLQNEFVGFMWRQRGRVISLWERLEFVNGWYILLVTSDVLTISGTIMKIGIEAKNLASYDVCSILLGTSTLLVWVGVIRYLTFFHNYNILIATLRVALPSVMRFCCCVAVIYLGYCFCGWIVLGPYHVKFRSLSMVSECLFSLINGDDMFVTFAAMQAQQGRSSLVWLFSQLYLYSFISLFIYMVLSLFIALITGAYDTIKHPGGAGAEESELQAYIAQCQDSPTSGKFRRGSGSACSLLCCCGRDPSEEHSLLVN
Nature of the assay: cryo-EM structure. The conditions noted are these: remark: other sources report otherwise.

For assay [2], the target named is T1, full-length human TRPML1 (transient …). Nature of the assay: cryo-EM structure. The conditions noted are these: remark: other sources report otherwise.

B1: full-length human TRPML1 (transient receptor potential mucolipin 1), Q9GZU1 1-580 (natural protein)
chain: MTAPAGPRGSETERLLTPNPGYGTQAGPSPAPPTPPEEEDLRRRLKYFFMSPCDKFRAKGRKPCKLMLQVVKILVVTVQLILFGLSNQLAVTFREENTIAFRHLFLLGYSDGADDTFAAYTREQLYQAIFHAVDQYLALPDVSLGRYAYVRGGGDPWTNGSGLALCQRYYHRGHVDPANDTFDIDPMVVTDCIQVDPPERPPPPPSDDLTLLESSSSYKNLTLKFHKLVNVTIHFRLKTINLQSLINNEIPDCYTFSVLITFDNKAHSGRIPISLETQAHIQECKHPSVFQHGDNSFRLLFDVVVILTCSLSFLLCARSLLRGFLLQNEFVGFMWRQRGRVISLWERLEFVNGWYILLVTSDVLTISGTIMKIGIEAKNLASYDVCSILLGTSTLLVWVGVIRYLTFFHNYNILIATLRVALPSVMRFCCCVAVIYLGYCFCGWIVLGPYHVKFRSLSMVSECLFSLINGDDMFVTFAAMQAQQGRSSLVWLFSQLYLYSFISLFIYMVLSLFIALITGAYDTIKHPGGAGAEESELQAYIAQCQDSPTSGKFRRGSGSACSLLCCCGRDPSEEHSLLVN
The term stoichiometry N denotes the number of molecules, sites or subunits per partner or assembly. For the molecule B1, the stoichiometry N in assay [1] and in assay [2] was 4 throughout.
